Key:
[1] = target: T1, HSP90 (endogenous, from MDA-MB-231 cells and MDA-MB-231 xenograft tumor lysates) (human, UniProt P08238 2-724); assay: immunoprecipitation from MDA-MB-231 xenograft tumor lysates, immunoblot with commercial HSP90 antibody
T1 construct: The isoform is not resolved in these experiments; HSP90α (P07900) may also be present; also called cell surface HSP90
Experimental: RIPA lysates of xenograft tumor pieces were used for immunoprecipitation with 15 μg of HCAb1 and HCAb2. Immunoprecipitated HSP90β protein was detected on an immunoblot using commercial HSP90 antibody. […] Equal amounts of HCAb1 and HCAb2 were pulled down as detected by anti-mouse IgG antibody.
Xenograft tumor pieces were placed in 500 μL of 1% Triton™ X-100+0.1% SDS/PBS lysis buffer supplemented with 0.2 mM sodium orthovanadate and fresh protease inhibitor cocktail (1:100) and homogenized using polytron homogenizer for 30 sec −1 min on ice. Homogenates were spun at 14,000 rpm for 20 min at 4° C. and supernatants were used for immunoprecipitation.
We also wanted to determine if HCAb2 can bind to HSP90 from the xenograft tumor lysates. Xenograft tumor pieces were homogenized and incubated with exogenous HCAb1 and HCAb2. Immunoprecipitated proteins were detected using the commercial HSP90 antibody. […] In summary, we observed that HCAb2 bound preferentially to a small population of MDA-MB-231 xenograft tumor cells in comparison to the normal mouse tissues and also pulled down HSP90 from xenograft tumor lysates.

[2] = target: T2, Recombinant human HSP90β (human, UniProt P08238 1-724, limits assumed); assay: immunoprecipitation of recombinant HSP90β, immunoblot with commercial HSP90 antibody
T2 construct: Bought protein; also called heat shock protein HSP 90-beta; HSP90AB1
T2 sequence (P08238 whole entry): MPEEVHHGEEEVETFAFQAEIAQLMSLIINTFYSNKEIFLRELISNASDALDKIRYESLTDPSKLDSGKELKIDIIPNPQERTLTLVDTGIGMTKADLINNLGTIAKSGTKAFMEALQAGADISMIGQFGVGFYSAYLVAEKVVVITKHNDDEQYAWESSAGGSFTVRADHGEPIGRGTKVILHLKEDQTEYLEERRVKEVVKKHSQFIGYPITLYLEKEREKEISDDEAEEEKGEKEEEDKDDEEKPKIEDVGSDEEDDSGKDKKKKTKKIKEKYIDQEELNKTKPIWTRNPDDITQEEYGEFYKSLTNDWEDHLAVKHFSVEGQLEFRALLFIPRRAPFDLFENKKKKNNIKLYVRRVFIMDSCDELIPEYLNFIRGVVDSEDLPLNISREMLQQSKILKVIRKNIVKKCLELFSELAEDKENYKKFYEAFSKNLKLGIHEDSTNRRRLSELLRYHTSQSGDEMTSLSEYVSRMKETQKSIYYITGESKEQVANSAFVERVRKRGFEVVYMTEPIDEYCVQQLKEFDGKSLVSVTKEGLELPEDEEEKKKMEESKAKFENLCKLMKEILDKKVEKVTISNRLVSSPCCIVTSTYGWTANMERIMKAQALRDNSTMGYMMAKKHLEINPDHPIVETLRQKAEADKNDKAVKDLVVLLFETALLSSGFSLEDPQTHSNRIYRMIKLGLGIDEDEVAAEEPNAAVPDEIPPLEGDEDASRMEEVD
Experimental: FIGS. 4 A and B show a validation of the target antigens of HCAb1 and HCAb2. […] Immunoprecipitation of HSP90 was performed from cytosolic and plasma membrane (PM) fractions using HCAb2. The immunoprecipitated HSP90 was detected using a commercial HSP90 antibody. […] HCAb1 and HCAb2 (5 μg each) were used to immunoprecipitate recombinant HSP90β (1 μg) resuspended in either 1% Triton X-100+0.1% SDS or 1% Triton X-100+1% SDS buffers. The immunoprecipitated HSP90β protein was detected using a commercial HSP90 antibody. Equal amounts of HCAb1 and HCAb2 were pulled down as detected by anti-mouse IgG antibody.
The list of proteins identified for HCAb2 contained both HSP90α and HSP90β isoforms with HSP90β being the highest scoring protein (Table 2). […] Of the 45 peptides, 3 peptides were unique to HSP90α, while 15 peptides were unique to HSP90β and the remaining 27 peptides were common to both the isoforms. […] To test this, we used recombinant human HSP90β (highest scoring protein from Table 2) to determine the specificity of HCAb2. HCAb1 and HCAb2 were examined for their ability to immunoprecipitate HSP90β and the presence of HSP90β detected using the commercial HSP90 antibody. […] This interaction was abolished when the SDS concentration was elevated from 0.1% to 1%. […]

[3] = target: T3, Clathrin heavy chain 1 (UniProt Q00610 2-1675); assay: immunoprecipitation from MDA-MB-231 1% Triton X-100 lysate, gel band identified by LC-MS/MS
T3 construct: Endogenous protein, immunoprecipitated from cell lysate and stained in permeabilized MCF7 cells; also called CLTC
T3 sequence (Q00610 2-1675 limits assumed): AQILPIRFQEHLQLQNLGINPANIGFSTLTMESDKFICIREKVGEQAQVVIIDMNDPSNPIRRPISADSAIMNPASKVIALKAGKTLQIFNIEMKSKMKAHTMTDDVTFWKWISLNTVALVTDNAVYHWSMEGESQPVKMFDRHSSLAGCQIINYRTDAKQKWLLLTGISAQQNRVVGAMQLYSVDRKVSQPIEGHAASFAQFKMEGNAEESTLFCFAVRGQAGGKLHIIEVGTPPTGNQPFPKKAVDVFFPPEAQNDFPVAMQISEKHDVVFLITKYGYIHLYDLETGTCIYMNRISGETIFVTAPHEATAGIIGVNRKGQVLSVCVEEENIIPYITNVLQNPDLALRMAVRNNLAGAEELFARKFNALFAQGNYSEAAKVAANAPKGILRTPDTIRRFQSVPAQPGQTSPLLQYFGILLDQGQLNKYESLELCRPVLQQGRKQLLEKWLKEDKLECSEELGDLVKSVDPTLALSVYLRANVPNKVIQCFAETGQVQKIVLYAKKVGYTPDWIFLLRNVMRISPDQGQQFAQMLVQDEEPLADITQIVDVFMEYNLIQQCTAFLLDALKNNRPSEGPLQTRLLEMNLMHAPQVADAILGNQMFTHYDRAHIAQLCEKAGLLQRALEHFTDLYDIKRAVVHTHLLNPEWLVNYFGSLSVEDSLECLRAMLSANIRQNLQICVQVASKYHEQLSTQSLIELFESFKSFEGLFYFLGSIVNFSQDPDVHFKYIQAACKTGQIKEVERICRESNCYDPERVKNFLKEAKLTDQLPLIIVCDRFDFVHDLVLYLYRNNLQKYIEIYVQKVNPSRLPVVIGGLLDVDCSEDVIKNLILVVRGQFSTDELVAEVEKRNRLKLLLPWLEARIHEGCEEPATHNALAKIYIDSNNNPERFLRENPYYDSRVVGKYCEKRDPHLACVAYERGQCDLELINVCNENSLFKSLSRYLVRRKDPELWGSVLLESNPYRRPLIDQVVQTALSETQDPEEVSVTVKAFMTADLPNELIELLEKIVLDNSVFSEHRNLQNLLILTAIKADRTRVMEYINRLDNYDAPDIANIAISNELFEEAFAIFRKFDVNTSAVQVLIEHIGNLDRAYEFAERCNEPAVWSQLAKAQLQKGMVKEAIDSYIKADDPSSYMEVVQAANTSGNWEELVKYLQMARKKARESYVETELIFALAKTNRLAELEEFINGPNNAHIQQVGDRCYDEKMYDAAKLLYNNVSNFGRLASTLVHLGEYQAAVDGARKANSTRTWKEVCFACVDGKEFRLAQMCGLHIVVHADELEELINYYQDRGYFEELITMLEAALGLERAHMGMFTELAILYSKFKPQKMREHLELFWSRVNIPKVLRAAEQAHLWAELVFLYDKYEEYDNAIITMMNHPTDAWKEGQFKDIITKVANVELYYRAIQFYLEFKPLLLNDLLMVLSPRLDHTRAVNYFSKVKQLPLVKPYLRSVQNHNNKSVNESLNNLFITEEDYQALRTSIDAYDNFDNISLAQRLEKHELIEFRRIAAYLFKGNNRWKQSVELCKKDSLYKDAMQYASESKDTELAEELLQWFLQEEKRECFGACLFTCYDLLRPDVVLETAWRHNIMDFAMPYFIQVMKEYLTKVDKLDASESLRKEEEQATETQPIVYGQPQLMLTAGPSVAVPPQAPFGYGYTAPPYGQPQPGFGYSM
Experimental: FIGS. 3 A and B show immunoprecipitation of respective target antigens by HCAb1 and HCAb2. 20 μg of HCAb1 and HCAb2 were used to immunoprecipitate the target antigens from 1% Triton X-100 (A) or 1% Triton X-100+0.1% SDS (B) MDA-MB-231 lysates. The immunoprecipitated proteins were run on a reducing SDS-PAGE gel and the proteins in the gel were stained with SYPRO® Ruby stain. * indicates the specific band for HCAb1 (A) and HCAb2 (B).
In order to determine the antigens recognized by the HCAbs, we performed immunoprecipitation of the antigens followed by protein identification using mass spectrometry. We chose MDA-MB-231 cell lysates since the respective target antigens for both HCAb1 (FIG. 1L) and HCAb2 (FIGS. 1C, 1I and 1O) were abundant in MDA-MB-231 cells. The immunoprecipitated proteins were run on a reducing SDS-PAGE gel and visualized using SYPRO® Ruby stain. […] Furthermore, these buffer conditions were unfavorable for HCAb1 to immunoprecipitate the band seen previously (FIG. 3A) in the buffer lacking SDS.
The specific gel bands (*) observed in FIGS. 3A and 3B were excised and the tryptic peptides were analyzed by mass spectrometry. Peptides identified from the analysis were used to search the SwissProt database to obtain the list of target proteins. Tables 1 and 2 list the top five proteins identified from the HCAb1 and HCAb2 immunoprecipitated bands, respectively. […]

T1 sequence (P08238 2-724 limits assumed): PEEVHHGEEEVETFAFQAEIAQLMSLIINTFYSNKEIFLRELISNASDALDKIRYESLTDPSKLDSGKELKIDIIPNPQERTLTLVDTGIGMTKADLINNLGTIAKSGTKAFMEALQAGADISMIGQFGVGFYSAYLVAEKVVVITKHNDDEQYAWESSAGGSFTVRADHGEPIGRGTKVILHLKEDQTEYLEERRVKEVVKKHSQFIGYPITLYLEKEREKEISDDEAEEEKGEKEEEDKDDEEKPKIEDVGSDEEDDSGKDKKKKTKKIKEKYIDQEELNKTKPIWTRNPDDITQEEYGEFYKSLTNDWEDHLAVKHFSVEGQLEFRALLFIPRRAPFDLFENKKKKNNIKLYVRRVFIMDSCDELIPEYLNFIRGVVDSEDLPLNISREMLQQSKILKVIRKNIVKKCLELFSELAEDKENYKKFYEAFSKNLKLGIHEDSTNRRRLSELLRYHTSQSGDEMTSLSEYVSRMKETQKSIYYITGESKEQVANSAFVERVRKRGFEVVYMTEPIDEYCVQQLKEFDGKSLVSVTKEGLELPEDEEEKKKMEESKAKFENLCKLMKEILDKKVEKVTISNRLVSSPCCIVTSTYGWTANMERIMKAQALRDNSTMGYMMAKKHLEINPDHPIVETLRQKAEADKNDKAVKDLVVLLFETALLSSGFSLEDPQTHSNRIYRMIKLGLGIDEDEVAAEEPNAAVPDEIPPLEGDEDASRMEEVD

binding result [1]: no binding (tested: 15 µg of HCAb1)
binding result [2]: no binding (tested: 1 µg HSP90β)
binding result [3]: binds
B1: HCAb1 (Fc fusion)
heavy: QVQLVQSGGGLVQPGGSLRLSCAASGFTFSSYAMSWVRQAPGKGLEWVSAISGSGGSTYYADSVKGRFTISRDNSKNTLYLQMNSLRAEDTAVYYCARQEGQWLVQIDYWGQGTLVTVSS
notes: Human VH fused to the mouse Fc domain, no light chain, bivalent; It served as the control antibody for HCAb2; also called heavy chain antibody 1; not shown: mouse Fc domain from vector pCMV6-AC-FC-S (OriGene), with any junction residues encoded by the PCR primers

— patent publication US20180002412A1 (UNIVERSITY OF CONNECTICUT, published 2018)
